Data from patent US20220298218A1 (ANTAG THERAPEUTICS, published 2022).
*1 amine or outer side, *2 acyl side, *3 side chain or, on linkers, in order; H or OH if unused. Where no end group is shown, it is not given here. [ ]: non-standard residue; d: D form. The star is where a group is joined. C16 diacid = O=C(O)CCCCCCCCCCCCCCC(=O)*; γGlu = O=C(O)[C@H](CCC(=O)[*:2])N[*:1]; Nle = CCCC[C@H](N)C(=O)O; Aib = CC(C)(N)C(=O)O

B1: AT673 (peptide)
peptide: EGTFISEYSI[Aib]LEKIK(C16 diacid)QQEFVEWLLAQKPSSGAPPPS-OH
modifications: N-terminus assumed
SMILES: CC[C@H](C)[C@H](NC(=O)[C@H](CCCCN)NC(=O)[C@H](CCC(=O)O)NC(=O)[C@H](CC(C)C)NC(=O)C(C)(C)NC(=O)[C@@H](NC(=O)[C@H](CO)NC(=O)[C@H](Cc1ccc(O)cc1)NC(=O)[C@H](CCC(=O)O)NC(=O)[C@H](CO)NC(=O)[C@@H](NC(=O)[C@H](Cc1ccccc1)NC(=O)[C@@H](NC(=O)CNC(=O)[C@@H](N)CCC(=O)O)[C@@H](C)O)[C@@H](C)CC)[C@@H](C)CC)C(=O)N[C@@H](CCCCNC(=O)CCCCCCCCCCCCCCC(=O)O)C(=O)N[C@@H](CCC(N)=O)C(=O)N[C@@H](CCC(N)=O)C(=O)N[C@@H](CCC(=O)O)C(=O)N[C@@H](Cc1ccccc1)C(=O)N[C@H](C(=O)N[C@@H](CCC(=O)O)C(=O)N[C@@H](Cc1c[nH]c2ccccc12)C(=O)N[C@@H](CC(C)C)C(=O)N[C@@H](CC(C)C)C(=O)N[C@@H](C)C(=O)N[C@@H](CCC(N)=O)C(=O)N[C@@H](CCCCN)C(=O)N1CCC[C@H]1C(=O)N[C@@H](CO)C(=O)N[C@@H](CO)C(=O)NCC(=O)N[C@@H](C)C(=O)N1CCC[C@H]1C(=O)N1CCC[C@H]1C(=O)N1CCC[C@H]1C(=O)N[C@@H](CO)C(=O)O)C(C)C
B2: AT674 (peptide)
peptide: EGTFISEYSI[Aib][Nle]EKIK(C16 diacid)QQEFVEWLLAQKPSSGAPPPS-OH
modifications: N-terminus assumed
SMILES: CCCC[C@H](NC(=O)C(C)(C)NC(=O)[C@@H](NC(=O)[C@H](CO)NC(=O)[C@H](Cc1ccc(O)cc1)NC(=O)[C@H](CCC(=O)O)NC(=O)[C@H](CO)NC(=O)[C@@H](NC(=O)[C@H](Cc1ccccc1)NC(=O)[C@@H](NC(=O)CNC(=O)[C@@H](N)CCC(=O)O)[C@@H](C)O)[C@@H](C)CC)[C@@H](C)CC)C(=O)N[C@@H](CCC(=O)O)C(=O)N[C@@H](CCCCN)C(=O)N[C@H](C(=O)N[C@@H](CCCCNC(=O)CCCCCCCCCCCCCCC(=O)O)C(=O)N[C@@H](CCC(N)=O)C(=O)N[C@@H](CCC(N)=O)C(=O)N[C@@H](CCC(=O)O)C(=O)N[C@@H](Cc1ccccc1)C(=O)N[C@H](C(=O)N[C@@H](CCC(=O)O)C(=O)N[C@@H](Cc1c[nH]c2ccccc12)C(=O)N[C@@H](CC(C)C)C(=O)N[C@@H](CC(C)C)C(=O)N[C@@H](C)C(=O)N[C@@H](CCC(N)=O)C(=O)N[C@@H](CCCCN)C(=O)N1CCC[C@H]1C(=O)N[C@@H](CO)C(=O)N[C@@H](CO)C(=O)NCC(=O)N[C@@H](C)C(=O)N1CCC[C@H]1C(=O)N1CCC[C@H]1C(=O)N1CCC[C@H]1C(=O)N[C@@H](CO)C(=O)O)C(C)C)[C@@H](C)CC
B3: AT669 (peptide)
peptide: EGTFISDYSIA[Nle]DKIK(C16 diacid)QQDFVEWLLAQKPSSGAPPPS-OH
modifications: N-terminus assumed
SMILES: CCCC[C@H](NC(=O)[C@H](C)NC(=O)[C@@H](NC(=O)[C@H](CO)NC(=O)[C@H](Cc1ccc(O)cc1)NC(=O)[C@H](CC(=O)O)NC(=O)[C@H](CO)NC(=O)[C@@H](NC(=O)[C@H](Cc1ccccc1)NC(=O)[C@@H](NC(=O)CNC(=O)[C@@H](N)CCC(=O)O)[C@@H](C)O)[C@@H](C)CC)[C@@H](C)CC)C(=O)N[C@@H](CC(=O)O)C(=O)N[C@@H](CCCCN)C(=O)N[C@H](C(=O)N[C@@H](CCCCNC(=O)CCCCCCCCCCCCCCC(=O)O)C(=O)N[C@@H](CCC(N)=O)C(=O)N[C@@H](CCC(N)=O)C(=O)N[C@@H](CC(=O)O)C(=O)N[C@@H](Cc1ccccc1)C(=O)N[C@H](C(=O)N[C@@H](CCC(=O)O)C(=O)N[C@@H](Cc1c[nH]c2ccccc12)C(=O)N[C@@H](CC(C)C)C(=O)N[C@@H](CC(C)C)C(=O)N[C@@H](C)C(=O)N[C@@H](CCC(N)=O)C(=O)N[C@@H](CCCCN)C(=O)N1CCC[C@H]1C(=O)N[C@@H](CO)C(=O)N[C@@H](CO)C(=O)NCC(=O)N[C@@H](C)C(=O)N1CCC[C@H]1C(=O)N1CCC[C@H]1C(=O)N1CCC[C@H]1C(=O)N[C@@H](CO)C(=O)O)C(C)C)[C@@H](C)CC
B4: AT670 (peptide)
peptide: EGTFISDYSIAKDKIK(C16 diacid)QQDFVEWLLAQKPSSGAPPPS-OH
modifications: N-terminus assumed
SMILES: CC[C@H](C)[C@H](NC(=O)[C@H](CO)NC(=O)[C@H](Cc1ccc(O)cc1)NC(=O)[C@H](CC(=O)O)NC(=O)[C@H](CO)NC(=O)[C@@H](NC(=O)[C@H](Cc1ccccc1)NC(=O)[C@@H](NC(=O)CNC(=O)[C@@H](N)CCC(=O)O)[C@@H](C)O)[C@@H](C)CC)C(=O)N[C@@H](C)C(=O)N[C@@H](CCCCN)C(=O)N[C@@H](CC(=O)O)C(=O)N[C@@H](CCCCN)C(=O)N[C@H](C(=O)N[C@@H](CCCCNC(=O)CCCCCCCCCCCCCCC(=O)O)C(=O)N[C@@H](CCC(N)=O)C(=O)N[C@@H](CCC(N)=O)C(=O)N[C@@H](CC(=O)O)C(=O)N[C@@H](Cc1ccccc1)C(=O)N[C@H](C(=O)N[C@@H](CCC(=O)O)C(=O)N[C@@H](Cc1c[nH]c2ccccc12)C(=O)N[C@@H](CC(C)C)C(=O)N[C@@H](CC(C)C)C(=O)N[C@@H](C)C(=O)N[C@@H](CCC(N)=O)C(=O)N[C@@H](CCCCN)C(=O)N1CCC[C@H]1C(=O)N[C@@H](CO)C(=O)N[C@@H](CO)C(=O)NCC(=O)N[C@@H](C)C(=O)N1CCC[C@H]1C(=O)N1CCC[C@H]1C(=O)N1CCC[C@H]1C(=O)N[C@@H](CO)C(=O)O)C(C)C)[C@@H](C)CC
B5: AT675 (peptide)
peptide: [γGlu]GTFISDYSIAMDKIK(C16 diacid)QQDFVNWLLAQKPSSGAPPPS-OH
modifications: N-terminus assumed
SMILES: CC[C@H](C)[C@H](NC(=O)[C@H](CO)NC(=O)[C@H](Cc1ccc(O)cc1)NC(=O)[C@H](CC(=O)O)NC(=O)[C@H](CO)NC(=O)[C@@H](NC(=O)[C@H](Cc1ccccc1)NC(=O)[C@@H](NC(=O)CNC(=O)CC[C@H](N)C(=O)O)[C@@H](C)O)[C@@H](C)CC)C(=O)N[C@@H](C)C(=O)N[C@@H](CCSC)C(=O)N[C@@H](CC(=O)O)C(=O)N[C@@H](CCCCN)C(=O)N[C@H](C(=O)N[C@@H](CCCCNC(=O)CCCCCCCCCCCCCCC(=O)O)C(=O)N[C@@H](CCC(N)=O)C(=O)N[C@@H](CCC(N)=O)C(=O)N[C@@H](CC(=O)O)C(=O)N[C@@H](Cc1ccccc1)C(=O)N[C@H](C(=O)N[C@@H](CC(N)=O)C(=O)N[C@@H](Cc1c[nH]c2ccccc12)C(=O)N[C@@H](CC(C)C)C(=O)N[C@@H](CC(C)C)C(=O)N[C@@H](C)C(=O)N[C@@H](CCC(N)=O)C(=O)N[C@@H](CCCCN)C(=O)N1CCC[C@H]1C(=O)N[C@@H](CO)C(=O)N[C@@H](CO)C(=O)NCC(=O)N[C@@H](C)C(=O)N1CCC[C@H]1C(=O)N1CCC[C@H]1C(=O)N1CCC[C@H]1C(=O)N[C@@H](CO)C(=O)O)C(C)C)[C@@H](C)CC

target: T1, human GIP receptor (human, UniProt P48546 22-466); test: cell-based or functional assay
T1 sequence (looked up): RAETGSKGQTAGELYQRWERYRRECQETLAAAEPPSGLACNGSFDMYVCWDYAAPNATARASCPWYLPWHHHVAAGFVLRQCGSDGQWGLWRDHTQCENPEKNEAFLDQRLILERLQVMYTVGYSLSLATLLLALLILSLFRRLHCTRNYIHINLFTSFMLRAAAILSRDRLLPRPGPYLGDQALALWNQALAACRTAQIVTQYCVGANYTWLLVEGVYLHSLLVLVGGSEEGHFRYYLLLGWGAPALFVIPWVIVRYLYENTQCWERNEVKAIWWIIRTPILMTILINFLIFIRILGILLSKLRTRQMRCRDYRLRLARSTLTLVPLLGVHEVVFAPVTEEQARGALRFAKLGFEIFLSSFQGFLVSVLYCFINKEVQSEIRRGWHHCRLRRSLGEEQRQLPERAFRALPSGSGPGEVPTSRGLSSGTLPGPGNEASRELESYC

Binder	cAMP agonism % Emax [%]	cAMP antagonism [nM]	cAMP antagonism % inhib [%]	cAMP antagonism pIC50
B1	0	0.136	94	9.9
B2	0	0.447	93	9.4
B3	0	3.35	95	8.5
B4	0	10	92	8
B5	3	4.3	90	8.4
